Measured values reported in article PMC5587726.

How the values were obtained:
Test in all cases: X-ray crystallography; UMPNPP, Mg2+; Crystals: DNA mixed with ~10 mg/mL protein (4:1 molar) on ice 1 h; cryoprotectant/soak 100 mM HEPES pH 7.5, 20% PEG 4000, 10 mM MgCl2, 50 mM NaCl, 5% glycerol
hPol μΔ2 G433A = hPol μΔ2 G433A (human, UniProt Q9NP87 132-397+=G+411-494, G433A;internal_change)
[1] = molecular target: hPol μΔ2 wildtype (DNA polymerase mu catalytic domain, Loop2 deleted) (human, UniProt Q9NP87 132-397+=G+411-494, internal_change)
hPol μΔ2 W434A = hPol μΔ2 W434A (human, UniProt Q9NP87 132-397+=G+411-494, W434A;internal_change)

Measured: binding result

Sequence of hPol μΔ2 G433A (Q9NP87 other isoform, or with tags, fused parts or gaps G433A/| G433A G433A): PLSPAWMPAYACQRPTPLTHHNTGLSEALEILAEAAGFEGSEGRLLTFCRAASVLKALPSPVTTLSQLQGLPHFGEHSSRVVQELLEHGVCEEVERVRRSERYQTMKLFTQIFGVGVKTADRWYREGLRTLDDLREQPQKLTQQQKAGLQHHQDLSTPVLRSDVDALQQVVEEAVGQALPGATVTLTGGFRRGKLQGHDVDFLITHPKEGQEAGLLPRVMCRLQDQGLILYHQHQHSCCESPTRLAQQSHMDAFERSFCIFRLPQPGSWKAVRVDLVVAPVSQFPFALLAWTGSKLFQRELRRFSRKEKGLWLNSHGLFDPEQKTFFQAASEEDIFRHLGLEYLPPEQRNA
Sequence of hPol μΔ2 wildtype (DNA polymerase mu catalytic domain, Loop2 deleted) (Q9NP87 other isoform, or with tags, fused parts or gaps | mutant): as the sequence (Q9NP87 other isoform, or with tags, fused parts or gaps G433A/| G433A G433A) above, with A290G counted along it
Sequence of hPol μΔ2 W434A (Q9NP87 other isoform, or with tags, fused parts or gaps W434A/| W434A W434A): as the sequence (Q9NP87 other isoform, or with tags, fused parts or gaps G433A/| G433A G433A) above, with A290G, W291A counted along it

B1: 1-nt gapped DNA (pre-catalytic) (dsDNA)
DNA 1: CGGCATACG
DNA 2: CGTA
DNA 3: GCCG
modifications: 5'-phosphate on downstream primer GCCG
binds: hPol μΔ2 G433A | [1] | hPol μΔ2 W434A
